Experimental data as given in patent publication US20240247080A1, “GLP1/GIP/NPY2 RECEPTOR TRIPLE AGONISTS” (Boehringer Ingelheim International GmbH, priority 2022, published 2024).
Residue numbers refer to the chain shown, from its start. Starred links: 1 amine or outer side, 2 acyl side, 3 side chain; linkers in the order of their positions; H or OH if unused. Non-standard residues stand in square brackets, D forms with d. Groups on a side chain read outwards from the residue. No end group written: not given here. *: point of attachment. C20 diacid = O=C(O)CCCCCCCCCCCCCCCCCCC(=O)*; C18 diacid = O=C(O)CCCCCCCCCCCCCCCCC(=O)*; γGlu = O=C(O)[C@H](CCC(=O)[*:2])N[*:1]; AEEA = NCCOCCOCC(=O)O; Aib = CC(C)(N)C(=O)O; Ahx = NCCCCCC(=O)O

T1: human neuropeptide Y2 receptor (human, UniProt P49146 1-381)
T1 sequence (looked up): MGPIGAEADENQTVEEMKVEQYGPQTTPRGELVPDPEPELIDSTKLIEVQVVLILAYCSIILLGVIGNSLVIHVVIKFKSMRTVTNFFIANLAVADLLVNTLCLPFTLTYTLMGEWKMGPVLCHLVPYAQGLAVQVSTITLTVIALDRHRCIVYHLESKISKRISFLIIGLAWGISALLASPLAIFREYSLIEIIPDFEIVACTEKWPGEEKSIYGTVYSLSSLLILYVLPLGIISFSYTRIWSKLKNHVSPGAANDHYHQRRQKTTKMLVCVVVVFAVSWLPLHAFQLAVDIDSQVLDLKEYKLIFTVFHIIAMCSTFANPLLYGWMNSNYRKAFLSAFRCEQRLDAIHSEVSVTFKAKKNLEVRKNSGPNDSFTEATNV

T2: human GIP receptor (human, UniProt P48546 22-466)
T2 sequence (looked up): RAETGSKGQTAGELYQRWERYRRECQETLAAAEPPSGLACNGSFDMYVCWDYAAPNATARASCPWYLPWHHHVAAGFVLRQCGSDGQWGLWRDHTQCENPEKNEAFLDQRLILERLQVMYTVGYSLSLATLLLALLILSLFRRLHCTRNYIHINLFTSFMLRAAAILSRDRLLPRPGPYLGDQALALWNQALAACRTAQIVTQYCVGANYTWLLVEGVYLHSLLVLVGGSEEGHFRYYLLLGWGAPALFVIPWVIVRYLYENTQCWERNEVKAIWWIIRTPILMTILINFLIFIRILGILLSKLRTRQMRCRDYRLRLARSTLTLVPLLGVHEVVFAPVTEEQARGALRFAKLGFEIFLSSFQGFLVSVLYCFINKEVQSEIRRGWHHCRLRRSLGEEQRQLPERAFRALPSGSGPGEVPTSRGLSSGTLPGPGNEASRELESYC

B1: Compound 275 (peptide)
peptide: YXEGTFTSDYSIXLEKQAQXEFVEWLIKGGPSEGASLRHYYNWLTRQRY
modifications: Aib at 2, 13, 20; K28 side chain acylated with C20DA-gGlu-gGlu-gGlu-gGlu-gGlu-gGlu-eLys; C-terminal amide (NH2)
B2: Compound 277 (peptide)
peptide: B1 peptide with E21A, Q47X
modifications: Aib at 2, 13, 20; bHGln (beta-homo-L-glutamine) at 47; K28 side chain acylated with C20DA-gGlu-gGlu-gGlu-gGlu-gGlu-gGlu-eLys; C-terminal amide (NH2)
B3: Compound 272 (peptide)
peptide: Y[Aib]EGTFTSDYSI[Aib]LEKQAQ[Aib]AFVEWLIK([γGlu-γGlu-γGlu-γGlu-C18 diacid])GGPEEGASLRHYYNWLTRQRY-NH2
modifications: also: TFA salt
B4: Compound 281 (peptide)
peptide: Y[Aib]EGTFTSDYSI[Aib]LEKQAQ[Aib]AFVQWLIK([Glu-Glu-Glu-Glu-C18 diacid])GGPSEGASLRHYYNWLTRQRY-NH2
modifications: also: TFA salt
B5: Compound 279 (peptide)
peptide: Y[Aib]EGTFTSDYSI[Aib]LEKQAQ[Aib]EFVEWLIK([Ahx-γGlu-γGlu-γGlu-γGlu-γGlu-γGlu-C18 diacid])GGPSEGASLRHYYNWLTRQRY-NH2
modifications: also: TFA salt
B6: Compound 282 (peptide)
peptide: Y[Aib]EGTFTSDYSI[Aib]LEKQAQ[Aib]EFVEWLIK([AEEA-AEEA-γGlu-C18 diacid])GGPSEGASLRHYYNWLTRQRY-NH2
modifications: also: TFA salt
B7: Compound 269 (peptide)
peptide: Y[Aib]EGTFTSDYSI[Aib]LEKQAQ[Aib]AFVQWLIK([AEEA-AEEA-γGlu-γGlu-γGlu-γGlu-C20 diacid])GGPSEGASLRHYYNWLTRQRY-NH2
modifications: also: TFA salt
B8: Compound 276 (peptide)
peptide: Y[Aib]EGTFTSDYSI[Aib]LEKQAQ[Aib]EFVEWLIK([γGlu-γGlu-γGlu-γGlu-C18 diacid])GGPSEGASLRHYYNWLTRQRY-NH2
modifications: also: TFA salt
B9: Compound 271 (peptide)
peptide: Y[Aib]EGTFTSDYSI[Aib]LEKQAQ[Aib]EFVEWLIK([γGlu-γGlu-γGlu-γGlu-C20 diacid])GGPSEGASLRHYYNWLTRQRY-NH2
modifications: also: TFA salt
B10: Compound 280 (peptide)
peptide: Y[Aib]EGTFTSDYSI[Aib]LEKQAE[Aib]AFVEWLIK([γGlu-γGlu-γGlu-γGlu-C20 diacid])GGPSEGASLRHYYNWLTRQRY-NH2
modifications: also: TFA salt
B11: Compound 273 (peptide)
peptide: Y[Aib]EGTFTSDYSI[Aib]LEKQAQ[Aib]EFVEWLIK([AEEA-AEEA-γGlu-γGlu-γGlu-C20 diacid])GGPSEGASLRHYYNWLTRQRY-NH2
modifications: also: TFA salt
B12: Compound 274 (peptide)
peptide: Y[Aib]EGTFTSDYSI[Aib]LEKQAQ[Aib]EFVEWLIK([AEEA-γGlu-γGlu-γGlu-C18 diacid])GGPSEGASLRHYYNWLTRQRY-NH2
modifications: also: TFA salt
B13: Compound 268 (peptide)
peptide: Y[Aib]EGTFTSDYSI[Aib]LEKQAQ[Aib]AFVQWLIK([γGlu-γGlu-γGlu-γGlu-C18 diacid])GGPSEGASLRHYYNWLTRQRY-NH2
modifications: also: TFA salt
B14: Compound 283 (peptide)
peptide: Y[Aib]EGTFTSDYSI[Aib]LEKQAQ[Aib]AFIEWLIK([γGlu-γGlu-γGlu-γGlu-C20 diacid])GGPSEGASLRHYYNWLTRQRY-NH2
modifications: also: TFA salt
B15: Compound 270 (peptide)
peptide: Y[Aib]EGTFTSDYSI[Aib]LEKQAQ[Aib]AFVQWLIK([AEEA-AEEA-γGlu-γGlu-γGlu-γGlu-C18 diacid])GGPSEGASLRHYYNWLTRQRY-NH2
modifications: also: TFA salt
B16: Compound 278 (peptide)
peptide: Y[Aib]EGTFTSDYSI[Aib]LEKQAE[Aib]AFVEWLIKGGPSEGASLRHYYNWLTRQRY-NH2
modifications: not fully specified (residue 28); also: TFA salt

Molecular target: T1, human neuropeptide Y2 receptor
Assay: cell-based or functional assay

| EC50 hNPY2R 0.5% hP (CreLuc) | EC50 hNPY2R 100% hP (CreLuc) | Binder |
| --- | --- | --- |
| 19.9 nM | 60 nM | B1 |
| > 99.9 nM | 1120 nM | B2 |
| 23.8 nM | 113 nM | B3 |
| 23 nM | 169 nM | B4 |
| 32.4 nM | 103 nM | B5 |
| 17.3 nM | 71.4 nM | B6 |
| 9.56 nM | 32.5 nM | B7 |
| 20.7 nM | 73.7 nM | B8 |
| 16.1 nM | 80 nM | B9 |
| 15.6 nM | 91.4 nM | B10 |
| 19.3 nM | 76.3 nM | B11 |
| 18.1 nM | 74.6 nM | B12 |
| 9.86 nM | 47.3 nM | B13 |
| 14.7 nM | 104 nM | B14 |
| 9.52 nM | 21.1 nM | B15 |
| 17.5 nM | 88.6 nM | B16 |

Molecular target: T2, human GIP receptor
Assay: cell-based or functional assay

| EC50 hGIPR 0.5% hP (CreLuc) | EC50 hGIPR 100% hP (CreLuc) | Binder |
| --- | --- | --- |
| 0.27 nM | 1.75 nM | B1 |
| 0.11 nM | 0.68 nM | B2 |
| 0.24 nM | 3.01 nM | B3 |
| 0.28 nM | 0.69 nM | B4 |
| 0.71 nM | 1.76 nM | B5 |
| 0.17 nM | 1.03 nM | B6 |
| 0.46 nM | 1.23 nM | B7 |
| 0.37 nM | 1.82 nM | B8 |
| 0.62 nM | 2.62 nM | B9 |
| 0.38 nM | 2.44 nM | B10 |
| 0.38 nM | 1.52 nM | B11 |
| 0.23 nM | 1.78 nM | B12 |
| 0.17 nM | 1.01 nM | B13 |
| 0.23 nM | 1.86 nM | B14 |
| 0.12 nM | 0.71 nM | B15 |
| 0.14 nM | 1.38 nM | B16 |

Molecular target: human GLP-1 receptor (human, UniProt P43220 24-463)
Assay: cell-based or functional assay

| EC50 hGLP1R 0.5% hP (CreLuc) | EC50 hGLP1R 100% hP (CreLuc) | Binder |
| --- | --- | --- |
| 0.5 nM | 21.7 nM | B1 |
| 0.19 nM | 1.29 nM | B2 |
| 0.31 nM | 15.6 nM | B3 |
| 0.07 nM | 1.78 nM | B4 |
| 0.72 nM | 13.4 nM | B5 |
| 0.51 nM | 24.6 nM | B6 |
| 0.14 nM | 3.86 nM | B7 |
| 0.35 nM | 16.7 nM | B8 |
| 0.53 nM | 21.4 nM | B9 |
| 0.44 nM | 14.7 nM | B10 |
| 0.75 nM | 19.2 nM | B11 |
| 0.41 nM | 17.6 nM | B12 |
| 0.08 nM | 1.55 nM | B13 |
| 0.13 nM | 3.86 nM | B14 |
| 0.07 nM | 1.69 nM | B15 |
| 0.56 nM | 13 nM | B16 |
